We go through one molecule from patent US20240228639A1 (ALLOGENE THERAPEUTICS, published 2024).

“And” between values parts separate entries of the source, which are not always exact repeats. Equal values may be shown once.

For assay [1], the target named is T1, Biotin-hCD70 (human, UniProt P32970 39-193, limits assumed, biotinylated (site not stated)).
T1 construct: also called biotin-hCD70 complex; target antigen hCD70
T1 sequence (looked up): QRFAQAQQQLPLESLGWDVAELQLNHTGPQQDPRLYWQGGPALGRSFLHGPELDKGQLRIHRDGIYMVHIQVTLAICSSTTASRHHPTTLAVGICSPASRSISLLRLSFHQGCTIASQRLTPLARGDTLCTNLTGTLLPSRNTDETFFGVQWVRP
The assay can be described thus: SPR, Bt-hCD70 alone injected over clone 60 (hybridoma and recombinant) captured on anti-mouse Fc, then streptavidin.

Assay [2] deals with T2, 4F11 scFv 10xHis.
T2 construct: also called 4F11-derived scFv with a His tag; anti-CD70 scFv 4F11
Description: SPR (Biacore T200), 37 C; antibody captured on anti-mouse Fc chip, 4F11 scFv 10xHis 1.2-100 nM as analyte; 1:1 Langmuir fit. The procedure: (§1) All SPR analysis was determined on a BIACore T200 SPR instrument (Cytiva, Marlborough, MA). For kinetic analysis and determination of simultaneous target antigen binding of CD70 anti-idiotype antibodies, mouse Fc was captured on a Biacore Series S CM4 sensor chip by amine-coupling of an anti-mouse Fc reagent (Mouse Antibody Capture Kit, Cytiva, BR100838) to the Biacore Series S CM4 sensor chip using a running buffer of 10 mM HEPES, 150 mM NaCl, 0.05% (v/v) Tween-20, pH 7.4 at 25° C. All surfaces of the sensor chip were activated with a 1:1 (v/v) mixture of 400 mM 1-Ethyl-3-(3-Dimethylaminopropyl) carbodiimide hydrochloride (EDC) and 100 mM N-hydroxysuccinimide (NHS) for 7 min at 10 μL/min. The anti-mouse Fc reagent was diluted to 30 μg/mL in 10 mM sodium acetate (pH 5.0) and injected on all four flow cells for 7 min at 10 μL/min, then all flow cells were blocked with 100 mM ethylenediamine in 200 mM Borate buffer pH 8.5 for 7 min at […].
(§2) All interaction experiments were performed at 37° C. using the same running buffer as described above supplemented with 1 mg/mL BSA. […] The dissociation was monitored for 10 min followed by regeneration of all flow cells with 10 mM glycine at pH 1.7 for 3 min. […]

Assay [3] concerns the target T2, 4F11 scFv 10xHis. Description: SPR (Biacore), clone 60 captured on anti-mouse Fc, 4F11_scFv_0166-P as analyte, 37 C, 1:1 Binding model; Table 3 prints 1.43 nM for this lot, the sheet prints 1.422E-9. Here is the method: as §1, §2

T2 sequence (scFv, as listed by the source): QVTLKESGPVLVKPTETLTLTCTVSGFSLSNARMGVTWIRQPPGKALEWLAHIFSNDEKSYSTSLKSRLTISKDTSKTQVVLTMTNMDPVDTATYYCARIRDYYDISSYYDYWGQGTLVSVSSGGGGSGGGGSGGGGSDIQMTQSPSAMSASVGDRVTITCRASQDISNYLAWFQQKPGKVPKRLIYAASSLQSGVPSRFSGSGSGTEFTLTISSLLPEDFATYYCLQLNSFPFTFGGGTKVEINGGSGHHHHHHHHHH

B1: anti-idiotype antibody Clone 60 (IDA2002-1.60) (antibody, mouse IgG1, kappa, V domains shown)
VH: EVQLQQSGPELVKTGTSVKISCKASGYSITGYYIHWVKQSHGRSLDWIGSISFYNGATTYNQKFKGKVTFTVDTSSSTAYMQFNSLTSEDSAVYYCGRRGDDYDVFAYWGQGTLVTVSA
VL: DIVLTQSPASLAVSLGQRATISCRASESVDSYGYSFLHWYQQKPGQPPTLLIYRASNLESGIPARFSGSGSRTDFTLTINSVEADDVATYYCQQSNEDPWTFGGGTKLEIKR
notes: Mouse IgG1 kappa; also called clone 1.60; Clone 60-PE
A word on the Kd: it is the concentration at which binding is half-saturated. A lower Kd goes with a tighter complex. By koff is commonly meant the rate constant with which the complex falls apart. The low end stands for a long-lived complex, the high end for a short-lived complex. The term kon denotes the rate constant with which the complex forms. The low end stands for slow association, the high end for fast association. With B1, in assay [1], the binding result was “no binding (tested: 1 uM)”. For the same molecule, in assay [2], the Kd is 1.43 nM and 1.52 nM and 1.42 nM and 1.32 nM; the koff is 0.00343 s⁻¹ and 0.00359 s⁻¹ and 0.00312 s⁻¹ and 0.00348 s⁻¹; the kon was 2.7e+06 M⁻¹ s⁻¹ and 2.2e+06 M⁻¹ s⁻¹ (2×) and 2.4e+06 M⁻¹ s⁻¹; the t1/2 is 3.32 min and 3.37 min and 3.7 min and 3.22 min. Further, binding in assay [3] was put at a Kd of 1.42 nM.
